In paper PMC4797284 one finds stoichiometry N data, which are given here for 3 substances.

Assay [1] has as its target RepDN, chimera of the 21 kDa fragment of RepD fused to the 14 kDa fragment of RepN (residues 35-314) (Staphylococcus aureus) (UniProt P03065). The assay can be described thus: crystal structure.
Assay [2] addresses RepSTK1, core domain of the replication initiator protein of cryptic plasmid pSTK1 from Geobacillus stearothermophilus (residues 1-269) (Geobacillus stearothermophilus). The assay can be described thus: crystal structure; RepSTK1 crystals, space group P2(1)2(1)2(1), four molecules per asymmetric unit; protein dialysed against 50 mM Tris-HCl pH 7.5, 700 mM KCl; grown at 294 K as described in ref. 27; data at 100 K.

Assay [3] addresses RepDE, chimera of the 21 kDa fragment of RepD fused to the 14 kDa fragment of RepE (residues 35-314) (Staphylococcus aureus) (UniProt P03065). The assay can be described thus: crystal structure.

On to “RepDN, chimera of the 21 kDa fragment of RepD fused to the 14 kDa fragment of RepN (residues 35-314) (from UniProt P03065;P19529)”, for which the stoichiometry N in assay [1] was determined as 2. Turning to “RepSTK1, core domain of the replication initiator protein of cryptic plasmid pSTK1 from Geobacillus stearothermophilus (residues 1-269) (domain or fragment)”, in assay [2], the stoichiometry N was determined as 2. Turning to “RepDE, chimera of the 21 kDa fragment of RepD fused to the 14 kDa fragment of RepE (residues 35-314) (from UniProt P03065;P12053)”, the stoichiometry N in assay [3] was 2.
